From PMC3763426, “Genetic and structural validation of Aspergillus fumigatus N-acetylphosphoglucosamine mutase as an antifungal target” (Bioscience Reports, 2013) come the findings set out here.

The target of data set [1] is T1, AfAGM1 (A. fumigatus N-acetylphosphoglucosamine mutase) (Aspergillus fumigatus, UniProt Q4WJF0, DEL85-101).
T1 construct: gene AFUA_1G06210; deletion of VSSYGTFDGGMKGEFAD, residues 85–101 of XP_750370 (likely alternative splicing); GST tag cleaved; pSer69
Kind of data set: enzyme inhibition kinetics, Lineweaver–Burk plot. The class given is biochemical.

Data set [2] has as its target T1, AfAGM1 (A. fumigatus N-acetylphosphoglucosamine mutase). Kind of data set: direct HPAEC-PAD enzyme assay, […] Glc-1P. The class given is biochemical.
Data set [3] relates to CC(=O)N[C@H]1C(O)O[C@H](COP(=O)(O)O)[C@@H](O)[C@@H]1O. Kind of data set: purified protein. To be noted: Mg2+.
In data set [4] the test system is O=P(O)(O)O[C@H]1O[C@H](CO)[C@@H](O)[C@H](O)[C@H]1O. Kind of data set: purified protein. To be noted: Mg2+.

T1 sequence (Q4WJF0 entry or part of it DEL85-101): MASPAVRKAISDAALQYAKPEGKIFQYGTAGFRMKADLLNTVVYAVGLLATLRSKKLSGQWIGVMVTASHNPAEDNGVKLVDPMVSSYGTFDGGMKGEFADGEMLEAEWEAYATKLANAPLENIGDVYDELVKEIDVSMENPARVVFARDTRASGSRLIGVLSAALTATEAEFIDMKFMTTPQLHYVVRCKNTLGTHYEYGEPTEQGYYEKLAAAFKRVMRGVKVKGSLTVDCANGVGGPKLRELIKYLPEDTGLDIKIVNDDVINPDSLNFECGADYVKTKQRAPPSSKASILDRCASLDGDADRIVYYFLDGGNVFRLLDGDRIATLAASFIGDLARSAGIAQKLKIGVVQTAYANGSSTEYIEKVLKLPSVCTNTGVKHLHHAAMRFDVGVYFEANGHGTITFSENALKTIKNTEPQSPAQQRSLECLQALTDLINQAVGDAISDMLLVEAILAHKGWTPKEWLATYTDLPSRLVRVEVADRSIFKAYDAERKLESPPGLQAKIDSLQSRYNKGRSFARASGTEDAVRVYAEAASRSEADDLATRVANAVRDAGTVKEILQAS

For the compound `Nc1ccc(O)c2c1C(=O)c1c(O)ccc(N)c1C2=O` [compound 1, 1,5-diamino-4,8-dihydroxyanthraquinone], in data set [1], the Ki was 300 ± 13 µM.
`NC(Cc1cc(O)c(O)cc1O)C(=O)O` (racemic) [compound 3, 6-hydroxy-DL-DOPA] returned an IC50 in data set [2] of 58 ± 4 µM.
Take `Cc1nc(/N=N/c2ccc(C(=O)O)cc2)c(COP(=O)(O)O)c(C=O)c1O` [compound 4, tri-sodium 4-[(2z)-2-[4-formyl-6-metyl-5-oxo-3-(phosphonatooxymetyl)-pyridin-2-ylidene] hydrazinyl] benzoate]: half-maximal inhibition in data set [2] (IC50) was put at 7.1 ± 0.2 µM.
For the compound “AfAGM1 (A. fumigatus N-acetylphosphoglucosamine mutase) (Aspergillus fumigatus Af293; DEL85-101)”, in data set [3], the Michaelis constant (Km) stood at 25 ± 8 µM, the kcat was found to be 0.21 s⁻¹ and the kcat/Km was 8400 M⁻¹ s⁻¹. For the same compound, in data set [4], the Km was 1200 ± 100 µM, the kcat is 37.6 s⁻¹ and the specificity constant (kcat/Km) worked out at 31300 M⁻¹ s⁻¹.

Usually Ki stands for the dissociation constant of the complex between target and ligand, obtained from inhibition or displacement. A lower Ki goes with tighter binding. In general, IC50 refers to the concentration needed to halve the response being measured. Low values mean greater potency, high ones weaker potency. The term Km denotes the concentration of substrate that gives half-maximal velocity. The kcat is the maximal rate divided by the concentration of active sites. As a reminder, the kcat/Km is the second-order rate constant that governs catalysis at low substrate concentration.
